Patent publication US20250313625A1 (ELPISCIENCE SUZHOU BIOPHARMA, published 2025)

T1: hFc tagged human LAG3 D1-D2 recombinant protein (human, UniProt P18627 23-261)
T1 construct: range 23-261; generated by Chempartner; also called hLAG3 D1-D2; not shown: human IgG Fc tag
T1 sequence (looked up): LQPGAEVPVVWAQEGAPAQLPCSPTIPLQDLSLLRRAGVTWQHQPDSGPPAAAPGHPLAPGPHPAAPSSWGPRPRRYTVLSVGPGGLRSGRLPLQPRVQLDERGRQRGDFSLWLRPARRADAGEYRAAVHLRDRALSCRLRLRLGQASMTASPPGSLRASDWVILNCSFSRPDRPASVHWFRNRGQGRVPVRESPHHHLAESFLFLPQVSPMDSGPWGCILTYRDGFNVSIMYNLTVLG

T2: human LAG3, full length, stably expressed on cells (human, UniProt P18627 23-525)
T2 construct: whole, on cells; also called CHOK1-human LAG3
T2 sequence (looked up): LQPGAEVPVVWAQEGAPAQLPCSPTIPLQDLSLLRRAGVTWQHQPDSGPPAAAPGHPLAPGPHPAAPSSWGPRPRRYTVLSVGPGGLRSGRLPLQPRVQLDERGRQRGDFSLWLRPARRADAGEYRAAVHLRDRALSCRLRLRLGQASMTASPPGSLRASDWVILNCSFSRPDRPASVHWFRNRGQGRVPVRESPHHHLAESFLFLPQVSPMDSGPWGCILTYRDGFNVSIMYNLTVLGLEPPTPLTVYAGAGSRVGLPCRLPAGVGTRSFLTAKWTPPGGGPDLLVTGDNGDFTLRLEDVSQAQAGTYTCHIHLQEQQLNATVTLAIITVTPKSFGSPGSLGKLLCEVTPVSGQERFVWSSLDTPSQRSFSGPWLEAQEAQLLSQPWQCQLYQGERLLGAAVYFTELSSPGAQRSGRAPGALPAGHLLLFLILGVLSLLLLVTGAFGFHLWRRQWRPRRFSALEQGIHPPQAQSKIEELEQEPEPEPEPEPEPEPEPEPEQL

T3: mouse LAG3, full length, stably expressed on CHOK1 cells (mouse, UniProt Q61790 24-521)
T3 construct: whole, on cells
T3 sequence (looked up): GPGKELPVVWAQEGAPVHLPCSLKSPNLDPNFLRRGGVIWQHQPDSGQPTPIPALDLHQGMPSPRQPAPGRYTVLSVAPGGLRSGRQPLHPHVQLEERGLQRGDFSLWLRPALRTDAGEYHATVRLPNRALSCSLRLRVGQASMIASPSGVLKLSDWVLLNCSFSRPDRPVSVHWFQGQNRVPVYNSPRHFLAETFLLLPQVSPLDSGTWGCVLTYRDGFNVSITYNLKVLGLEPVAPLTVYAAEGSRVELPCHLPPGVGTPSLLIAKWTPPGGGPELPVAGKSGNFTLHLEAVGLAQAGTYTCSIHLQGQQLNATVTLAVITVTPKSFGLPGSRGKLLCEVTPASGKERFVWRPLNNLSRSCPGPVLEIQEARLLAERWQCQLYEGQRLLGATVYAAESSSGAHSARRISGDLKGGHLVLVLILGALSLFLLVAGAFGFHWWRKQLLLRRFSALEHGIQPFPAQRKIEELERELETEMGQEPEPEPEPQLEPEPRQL

T4: hFc tagged human LAG3 ECD recombinant protein (human, UniProt P18627 23-450)
T4 construct: range 23-450; also called biotin labelled hFc tagged human LAG3 ECD; not shown: human IgG Fc tag
T4 sequence (looked up): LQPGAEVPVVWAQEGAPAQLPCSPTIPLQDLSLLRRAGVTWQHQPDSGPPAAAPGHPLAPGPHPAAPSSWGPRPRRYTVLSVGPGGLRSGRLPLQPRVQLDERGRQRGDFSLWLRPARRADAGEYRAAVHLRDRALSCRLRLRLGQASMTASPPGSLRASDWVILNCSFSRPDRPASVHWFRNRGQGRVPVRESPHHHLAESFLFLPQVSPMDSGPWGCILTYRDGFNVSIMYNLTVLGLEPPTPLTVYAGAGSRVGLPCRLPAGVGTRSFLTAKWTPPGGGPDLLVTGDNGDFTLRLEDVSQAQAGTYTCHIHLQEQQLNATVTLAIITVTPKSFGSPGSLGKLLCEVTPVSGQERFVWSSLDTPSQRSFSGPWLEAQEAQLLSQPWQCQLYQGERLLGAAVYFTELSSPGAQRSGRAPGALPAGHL


What was measured:
[1] = target: T1, hFc tagged human LAG3 D1-D2 recombinant …; assay: ELISA, coated hFc-hLAG3 D1-D2
[2] = target: T2, human LAG3, full length, stably …; assay: FACS on 293F-human LAG3 cells
Procedure: (§1) Briefly the antibodies were incubated with 2×10⁵ target cells at 4° C. for 1 hour. After washing, fluorescence labeled anti-mouse IgG 2nd antibody (Life Technologies) was added and incubated at 4° C. for 1 hour. Geometric median fluorescence intensity (MFI) was detected and EC₅₀ was calculated using GraphPad Prism9.0.

[3] = target: T3, mouse LAG3, full length, stably …; assay: FACS on CHOK1 cells expressing mouse LAG3
Procedure: as §1

[4] = target: T5, cyno LAG3, full length, stably expressed on 293F cells (cyno); assay: FACS on 293F-cyno LAG3 cells, 20 nM antibody
T5 construct: whole, on cells
Procedure: as §1

[5] = target: T4, hFc tagged human LAG3 ECD recombinant …; assay: competitive FACS: hFc-LAG3 ECD binding to Raji cells (MHC II)
Procedure: Competitive FACS assay was used to determine whether the purified hybridoma antibodies can block LAG3 and MHC II interaction. […] After washing, dye labeled anti-human Fc 2nd antibody (Sigma) was added and incubated at 37° C. for 1 hour. Fluorescence intensity was detected.

[6] = target: T4, hFc tagged human LAG3 ECD recombinant …; assay: competitive ELISA: excess competitor, biotin hFc-LAG3 ECD, coated BAP-050
Procedure: (§2) Competitive ELISA assay was used for epitope binning of the purified hybridoma antibodies. […] After washing, HRP labeled anti-streptavidin (SA) 2nd antibody (Sigma) was added and incubated at 37° C. for 1 hour. Then, 100 μl/well of TMB solution (Biotechnology) was added. After incubation for 15 minutes at room temperature, the reaction was stopped by the addition of 50 μl of 1N HCl. OD 450 nm was read. Competition ratio was calculated.

[7] = target: T4, hFc tagged human LAG3 ECD recombinant …; assay: competitive ELISA: excess competitor, biotin hFc-LAG3 ECD, coated BMS-986016
Procedure: as §2

Binder	EC50 [1]	EC50 [2]	binding result [3]	MFI at 20 nM [4]	IC50 [5]	TOP blocking (%) [5]	% competition [6]	% competition [7]
Antibody 038 (antibody, V domains shown, mouse hybridoma antibody) VH: DVQVQESGPGLVKPSQSLSLTCSVTGYSITSGYYWNWIRQFPGNKLEWMGYISYDGSNEYNLSLKNRLSITRDTSKNQFFLKLNSVTTEDTATYYCAREEDGYYGGMDYWGQGTSVTVSS VL: DIVMTQSHKFMSASVGVRVSITCRASQDVDTAVAWYQQKPGQSPKLLIYWASTRHTGVPDRFTGSGSGTDFTLTISNVQSEDLADYFCQQYSSYPYTFGGGTKLEIK	0.07 nM	1.12 nM	no binding	142 MFI	4.2 nM	100%	6.4%	33.5%
Antibody 024 (antibody, V domains shown, mouse hybridoma antibody) VH: EVQLQQSGPELVKPGASVKISCKASGYTFTDYYMNWVKQSHGKRLEWIGDIDPNNGGTSYNQKFKGKATLTVDKSSSSAYMDLRSLTSEDSAVYYCARAGSYYYGSSYVEYFDVWGTGTTVTVSS VL: DIQMTQSPASLSASVGETVTITCRASGNIHNYLAWYQQKQGASPQLLVYNAKTLADGVPSRFSGSGSGTEFSLKINSLQPEDFGNYYCQHFWNTPYTFGGGTKLEIK	0.05 nM	2.04 nM	no binding	154 MFI	5.5 nM	81%	-0.5%	73%
Antibody 035 (antibody, V domains shown, mouse hybridoma antibody) VH: QVQLQQSGAELARPGASVKLSCKASGYSFTSYGINWVKQRTGQGLEWIGEIYPRSGNTYYNEKFKDKATLTADKSSSTAYMELRSLTSEDSAVYFCARGGTYDGYYYAMDFWGQGTSVTVSS VL: DIVLTQSPASLAVSLGQRATISCRASESVDNFGSSFLHWYQQKPGQAPKLLIYRASNLESGIPARFSGSGSRTDFTLTINPVETDDVATYYCQQVNKDPRTFGGGTKLEIK	0.06 nM	0.66 nM	no binding	155 MFI	5 nM	99.2%	91.9%	21.7%
Antibody 027 (antibody, V domains shown, mouse hybridoma antibody) VH: EVKILQSGGGLVQPGGSLKLSCAASGIDFSRYWMSWVRRTPGKGLEWIGEINPDSSTINYAPSLKDKFIISRDNAKNTLYLQMSKVRSEDTALYYCARLGIIPTYHYGSSGYYYAMDYWGQGTSVTVSS VL: DVLMTQTPLSLPVSLGDRASISCRSSQTIVHGNGHTSLEWYLQKPGQSPQLLIYKVSNRFSGVPDRFSASGSGTDFTLTISRVEAEDLGVYYCFQVSHVPYTFGGGTKLEIK	0.05 nM	2.38 nM	no binding	132 MFI	5.4 nM	97.2%	85.1%	7.2%
Antibody 033 (antibody, V domains shown, mouse hybridoma antibody) VH: EVQLQQSGAELVRPGASVKLSCTASDFNIKDDYIHWVKQRPEQGLEWIGWIDLENGDTEYASKFQGKATITADTSSNTAYLQLSSLTSEDTAVYYCTTKGSHWGQGTLVTVSA VL: DVVMTQIPLSLPVSLGDQASISCRSSQSLVYSNGNTYLNWYLQKPGQSPKLLIHKVSNRFSGVPDRFSGSGSGTDFTLKISRVEAEDLGVYFCSQSTHVPYTFGGGTKLEIR	0.07 nM	2.33 nM	no binding	83.4 MFI	4.8 nM	98.8%	3.8%	92.5%
Antibody 029 (antibody, V domains shown, mouse hybridoma antibody) VH: DVKLVESGEDLVKPGGSLKLSCAASGFTFSSYAMSWVRQTPEKRLEWVAYVTSGGDYIYYADTVKGRFTISRDDVRNTLYLQMSSLKSEDTAMYYCTRVAYDYEWYFDVWGTGAPVTVSS VL: DIVMTQSHKFMSTSVGDRVSITCKASQDVTTAVAWYQQKPGQSPKLLIYSASYRYTGVSDRFTGSGSGTDFTFTISSVQAEDLALYYCQQHDSSPWTFGGGTKLEIK	0.06 nM	4.58 nM	no binding	35.6 MFI	4.6 nM	90.7%	23.5%	20.3%

These reach a lower EC50 [1]. Values come first.

EC50 [1]	EC50 [2]	binding result [3]	MFI at 20 nM [4]	IC50 [5]	TOP blocking (%) [5]	% competition [6]	% competition [7]	Binder
0.02 nM	5.52 nM	no binding	105 MFI	4 nM	98.6%	57.1%	6.9%	Antibody 021 (antibody, V domains shown, mouse hybridoma antibody) VH: DIQLQESGPGLVKPSQSLSLTCSVTGYSITSGYYWNWIRQFPGNKLEWMGDISYDGGNNYNPSLKNRISITRDTSKNQFFLKLNSVTTEDTATYYCARDITLTGAMDYWGQGTSVTVSS VL: DIVLTQSPASLAVSLGQRATISCRASESVDNYGISFMHWYQQRPGQPPKLLIYRASNLESGIPARFSGSGSRTDFTLTINPVETDDVATYYCQQSNKDPYTFGGGTKLEIK
0.04 nM	1.14 nM	no binding	129 MFI	7.7 nM	82.7%	87.4%	8.9%	Antibody 047 (antibody, V domains shown, mouse hybridoma antibody) VH: QVQLQQSGAELARPGASVKLSCKASGYSFTSYGVNWVKQRTGQGLEWIGEIYPRSGNTYYNERFGDKATLTADKSSSTAYMEIRSLTSEDSAVYFCARGGTYDGYYYAMDYWGQGTSVTVSS VL: DIVLTQSPASLAVSLGQRATISCRASESVDNFGSSFMHWYQQKPGQAPKLLIYRASNLESGIPARFSGSGSRTDFTLTINPVETDDVATYYCQQVNKDPRTFGGGTKLEIK
0.02 nM	1.04 nM	no binding	83.4 MFI	5.1 nM	87.6%	87.7%	29.3%	Antibody 057 (antibody, V domains shown, mouse hybridoma antibody) VH: QVQLQQSGAELARPGASVKLSCKASGFSFTSYGINWVKQRTGQGLEWIGEIYPRSGNTYYNEKLKGEATLTADRSSSTAYMELRSLTSEDSAVYFCARGGTYDGYYYAMDYWGQGTSVTVSS VL: NIVLTQSPASLAVSLGQRATISCRASESVDNFGSSFMHWYQQKPGQAPKLLIYRASNLESGIPARFGGSGSGTDFTLTIDPVETDDVATYYCQQVNKDPRTFGGGTKLEIK
